Measurements: paper PMC3092763, “Urate Oxidase Purification by Salting-in Crystallization: Towards an Alternative to Chromatography” (PLoS ONE, 2011)

Molecular target: the molecule itself
Assay: SEC; analytical SEC of the pools of the downstream process; Superdex 200 GL, 50 mM sodium phosphate buffer pH 8, UV detection at 226 and 280 nm; column calibrated with seven proteins of 13.7 to 669 kDa; oligomer size from the calibration (with IEF profile and activity test as support)

B1: recombinant urate oxidase from Aspergillus flavus (rasburicase) (enzyme, UniProt Q00511 1-302, looked up)
chain: MSAVKAARYGKDNVRVYKVHKDEKTGVQTVYEMTVCVLLEGEIETSYTKADNSVIVATDSIKNTIYITAKQNPVTPPELFGSILGTHFIEKYNHIHAAHVNIVCHRWTRMDIDGKPHPHSFIRDSEEKRNVQVDVVEGKGIDIKSSLSGLTVLKSTNSQFWGFLRDEYTTLKETWDRILSTDVDATWQWKNFSGLQEVRSHVPKFDATWATAREVTLKTFAEDNSASVQATMYKMAEQILARQQLIETVEYSLPNKHYFEIDLSWHKGLQNTGKNAEVFAPQSDPNGLIKCTVGRSSLKSKL
notes: urate oxidase (uricase, EC 1.7.3.3) from Aspergillus flavus, recombinant form (rasburicase); subunit of about 34 kDa, 135 kDa tetramer of identical subunits; Several isoforms are seen by IEF even in the purest pool; also called Fasturtec; Elitek; source: expressed in a genetically modified Saccharomyces cerevisiae strain; supplied by Sanofi-Aventis, sampled at different steps of the downstream …
  stoichiometry N: 4
